Measurements reported in paper PMC7322189 (iScience, 2020).
Values belong to the binder of their own block, whether it stands above or below them.

What was measured:
GST-hExo70 (human Exo70) = GST-hExo70 (human Exo70) (human, UniProt Q9UPT5 1-735); assay: pull-down
GST-Exo70p (yeast Exo70) = GST-Exo70p (yeast Exo70) (yeast, UniProt P19658 1-623); assay: pull-down
Sequence of GST-Exo70p (yeast Exo70) (P19658 whole entry): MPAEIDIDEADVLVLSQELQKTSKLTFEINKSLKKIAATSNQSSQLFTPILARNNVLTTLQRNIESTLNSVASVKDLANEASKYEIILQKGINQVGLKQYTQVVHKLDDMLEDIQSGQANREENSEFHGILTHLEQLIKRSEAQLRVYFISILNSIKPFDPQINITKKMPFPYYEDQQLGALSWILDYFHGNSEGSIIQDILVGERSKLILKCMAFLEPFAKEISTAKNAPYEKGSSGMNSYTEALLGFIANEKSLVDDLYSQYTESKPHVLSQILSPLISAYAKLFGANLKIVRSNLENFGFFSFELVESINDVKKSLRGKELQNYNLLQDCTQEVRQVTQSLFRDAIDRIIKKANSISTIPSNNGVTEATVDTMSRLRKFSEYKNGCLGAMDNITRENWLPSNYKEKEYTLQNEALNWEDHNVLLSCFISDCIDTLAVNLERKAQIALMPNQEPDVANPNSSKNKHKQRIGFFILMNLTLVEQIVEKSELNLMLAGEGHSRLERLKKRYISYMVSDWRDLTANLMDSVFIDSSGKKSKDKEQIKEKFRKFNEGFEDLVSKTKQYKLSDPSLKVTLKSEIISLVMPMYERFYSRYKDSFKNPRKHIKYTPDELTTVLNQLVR

Sequence of GST-hExo70 (human Exo70) (Q9UPT5 whole entry): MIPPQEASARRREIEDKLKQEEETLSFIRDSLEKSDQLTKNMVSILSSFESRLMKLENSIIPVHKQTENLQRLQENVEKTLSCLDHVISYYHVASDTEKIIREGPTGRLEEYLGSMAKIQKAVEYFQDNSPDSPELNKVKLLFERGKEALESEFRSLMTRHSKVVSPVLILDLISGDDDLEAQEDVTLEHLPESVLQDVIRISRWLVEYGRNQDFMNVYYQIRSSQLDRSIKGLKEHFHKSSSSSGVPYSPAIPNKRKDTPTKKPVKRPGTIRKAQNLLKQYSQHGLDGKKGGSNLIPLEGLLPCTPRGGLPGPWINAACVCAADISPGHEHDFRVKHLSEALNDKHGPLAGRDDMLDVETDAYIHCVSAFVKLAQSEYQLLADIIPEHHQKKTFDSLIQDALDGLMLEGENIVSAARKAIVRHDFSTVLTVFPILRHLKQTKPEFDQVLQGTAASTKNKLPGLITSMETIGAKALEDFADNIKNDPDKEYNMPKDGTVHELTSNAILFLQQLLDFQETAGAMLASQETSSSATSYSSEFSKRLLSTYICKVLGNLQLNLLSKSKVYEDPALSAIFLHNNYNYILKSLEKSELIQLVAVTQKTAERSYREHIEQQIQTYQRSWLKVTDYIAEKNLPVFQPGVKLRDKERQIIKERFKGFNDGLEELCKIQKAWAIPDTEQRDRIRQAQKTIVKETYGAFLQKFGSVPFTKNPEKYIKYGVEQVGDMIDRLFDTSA

fold binding against yeast Exo70p (GST-hExo70 (human Exo70)): 4 fold
B1: Recombinant His-GIV-CT (C terminus of GIV/Girdin), wild type (domain or fragment)
chain: SETLESRHHKIKTGSPGSEVVTLQQFLEESNKLTSVQIKSSSQENLLDEVMKSLSVSSDFLGKDKPVSCGLARSVSGKTPGDFYDRRTTKPEFLRPGPRKTEDTYFISSAGKPTPGTQGKIKLVKESSLSRQSKDSNPYATLPRASSVISTAEGTTRRTSIHDFLTKDSRLPISVDSPPAAADSNTTAASNVDKVQESRNSKSRSREQQSS

fold binding against human Exo70 (GST-Exo70p (yeast Exo70)): 2 fold
B2: Recombinant His-Bem1p (natural protein, yeast, UniProt P29366 1-551, looked up)
chain: MLKNFKLSKRDSNGSKGRITSADISTPSHDNGSVIKHIKTVPVRYLSSSSTPVKSQRDSSPKNRHNSKDITSPEKVIKAKYSYQAQTSKELSFMEGEFFYVSGDEKDWYKASNPSTGKEGVVPKTYFEVFDRTKPSSVNGSNSSSRKVTNDSLNMGSLYAIVLYDFKAEKADELTTYVGENLFICAHHNCEWFIAKPIGRLGGPGLVPVGFVSIIDIATGYATGNDVIEDIKSVNLPTVQEWKSNIARYKASNISLGSVEQQQQQSITKPQNKSAKLVDGELLVKASVESFGLEDEKYWFLVCCELSNGKTRQLKRYYQDFYDLQVQLLDAFPAEAGKLRDAGGQWSKRIMPYIPGPVPYVTNSITKKRKEDLNIYVADLVNLPDYISRSEMVHSLFVVLNNGFDREFERDENQNNIKTLQENDTATFATASQTSNFASTNQDNTLTGEDLKLNKKLSDLSLSGSKQAPAQSTSGLKTTKIKFYYKDDIFALMLKGDTTYKELRSKIAPRIDTDNFKLQTKLFDGSGEEIKTDSQVSNIIQAKLKISVHDI
